# Molecular target: A2MR receptor on Vero cells (monkey (Vero cell line))
# Experiment: cell-based or functional assay
# Chain of RAPR13 (recombinant human LRPAP1 / receptor-associated protein with an N-terminal tag of 6 histidines and a thrombin cleavage site) (P30533 other isoform, or with tags, fused parts or gaps limits assumed): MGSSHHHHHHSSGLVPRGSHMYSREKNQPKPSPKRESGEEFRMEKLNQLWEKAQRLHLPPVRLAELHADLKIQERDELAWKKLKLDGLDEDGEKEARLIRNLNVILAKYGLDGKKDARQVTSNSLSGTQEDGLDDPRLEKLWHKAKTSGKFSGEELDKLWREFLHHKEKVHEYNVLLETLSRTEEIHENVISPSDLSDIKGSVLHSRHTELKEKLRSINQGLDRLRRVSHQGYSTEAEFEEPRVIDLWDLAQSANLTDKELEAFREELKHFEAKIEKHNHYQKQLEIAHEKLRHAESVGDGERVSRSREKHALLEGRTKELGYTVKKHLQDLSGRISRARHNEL
substance,measurement,value
RAPR13 (recombinant human LRPAP1 / receptor-associated protein with an N-terminal tag of 6 histidines and a thrombin cleavage site) (from UniProt P30533 35-357) (ligand),"inhibition of the infection of Vero cells by DV1 (West Pac 74), lytic plaque assay, RAPR13 at 100 µg/mL",65%
same,"inhibition of the infection of Vero cells by DV2 (S16803), lytic plaque assay, RAPR13 at 100 µg/mL",76%
same,"inhibition of the infection of Vero cells by DV3 (CH53489), lytic plaque assay, RAPR13 at 100 µg/mL",60%
same,"inhibition of the infection of Vero cells by DV4 (TVP360), lytic plaque assay, RAPR13 at 100 µg/mL",75%

# — patent publication US20110212105A1
